Measurements: patent US20130149300A1 (ICON GENETICS, published 2013)

B1: Anti-Ebola virus produced in -XF plants (antibody)
heavy: not shown
light: QLVLTQSSSASASLGASVKLTCTLSRQHSTYTIEWYQQQPAKPPRYVMELKKDGSHSTGDGIPDRFSGSSSGADRYLTISSLQSEDEADYYCGVGDTIKEQFVYVFGTGTKVTVLGQPKAAPSVTLFPPSSEELQANKATLVCLISDFYPGAVTVAWKADSSPVKAGVETTTPSKQSNNKYAASSYLSLTPEQWKSHRSYSCQVTHEGSTVEKTVAPTECS
B2: Anti-Ebola virus produced in -XF +gal plants (antibody)
heavy: not shown
light: B1 light
B3: Anti-Ebola virus produced in wild type plants (antibody)
heavy: not shown
light: B1 light

target: T1, Recombinant human FcγRIIIA (human, UniProt P08637 17-208); experiment: SPR (Biacore), receptor amine-coupled to CM5 chip, mAb flowed, 1:1 fit
T1 construct: also called FcγRIIIA (CD16); CD16
T1 sequence (P08637 17-208 limits assumed): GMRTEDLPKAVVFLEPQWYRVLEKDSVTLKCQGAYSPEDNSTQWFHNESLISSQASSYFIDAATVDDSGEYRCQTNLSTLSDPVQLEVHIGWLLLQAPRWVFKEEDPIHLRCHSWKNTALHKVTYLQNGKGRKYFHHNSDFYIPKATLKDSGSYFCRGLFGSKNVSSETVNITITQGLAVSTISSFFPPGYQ

Binder | Kd
B1 | 25 nM
B2 | 26 nM
B3 | 72 nM

target: T2, Recombinant human FcγRI (human, UniProt P12314 16-288); experiment: as above
T2 construct: also called FcγRI (CD64); CD64
T2 sequence (P12314 16-288 limits assumed): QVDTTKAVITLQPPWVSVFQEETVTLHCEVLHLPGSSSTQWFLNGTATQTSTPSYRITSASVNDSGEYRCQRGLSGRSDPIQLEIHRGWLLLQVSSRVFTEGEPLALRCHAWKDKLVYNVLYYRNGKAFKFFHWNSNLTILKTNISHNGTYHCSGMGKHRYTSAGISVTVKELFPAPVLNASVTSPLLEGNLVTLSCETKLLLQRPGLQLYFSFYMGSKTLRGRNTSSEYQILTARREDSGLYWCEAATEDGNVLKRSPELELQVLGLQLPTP

Binder | Kd
B1 | 16 nM
B2 | 15 nM
B3 | 42 nM

target: human C1q (human, UniProt P02745 23-245; P02746 28-253; P02747 29-245); experiment: C1q binding ELISA, mAb coated at 2.5 µg/ml, human C1q added
Sequence (P02745 23-245 limits assumed, chain 1 of 3): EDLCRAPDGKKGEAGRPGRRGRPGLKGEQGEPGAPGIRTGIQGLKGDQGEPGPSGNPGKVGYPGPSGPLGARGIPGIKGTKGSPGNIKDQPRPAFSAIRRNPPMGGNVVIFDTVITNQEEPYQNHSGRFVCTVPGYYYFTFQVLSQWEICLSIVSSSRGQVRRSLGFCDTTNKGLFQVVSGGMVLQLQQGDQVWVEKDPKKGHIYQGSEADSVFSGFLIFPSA
Sequence (P02746 28-253 limits assumed, chain 2 of 3): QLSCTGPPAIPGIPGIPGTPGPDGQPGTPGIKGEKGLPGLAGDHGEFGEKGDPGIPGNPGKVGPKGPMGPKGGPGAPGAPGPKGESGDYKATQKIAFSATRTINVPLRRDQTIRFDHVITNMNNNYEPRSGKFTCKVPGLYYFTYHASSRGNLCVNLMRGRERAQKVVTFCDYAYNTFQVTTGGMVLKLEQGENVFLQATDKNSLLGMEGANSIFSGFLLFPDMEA
Sequence (P02747 29-245 limits assumed, chain 3 of 3): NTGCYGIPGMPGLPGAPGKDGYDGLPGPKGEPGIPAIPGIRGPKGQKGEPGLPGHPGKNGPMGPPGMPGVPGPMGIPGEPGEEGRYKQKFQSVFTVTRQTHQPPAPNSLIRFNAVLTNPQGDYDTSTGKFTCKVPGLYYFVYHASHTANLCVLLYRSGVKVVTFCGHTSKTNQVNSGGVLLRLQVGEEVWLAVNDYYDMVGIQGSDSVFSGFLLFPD

Binder | Absorbance
B1 | 0.49 absorbance at 450 nm
B2 | 0.96 absorbance at 450 nm
B3 | 0.92 absorbance at 450 nm
